Source: article PMC8585765, “An OsKala3, R2R3 MYB TF, Is a Common Key Player for Black Rice Pericarp as Main Partner of an OsKala4, bHLH TF” (Frontiers in Plant Science, 2021)

Target: T1, OsKala4 (rice (Oryza sativa), UniProt Q948Y2 1-451)
T1 sequence (looked up): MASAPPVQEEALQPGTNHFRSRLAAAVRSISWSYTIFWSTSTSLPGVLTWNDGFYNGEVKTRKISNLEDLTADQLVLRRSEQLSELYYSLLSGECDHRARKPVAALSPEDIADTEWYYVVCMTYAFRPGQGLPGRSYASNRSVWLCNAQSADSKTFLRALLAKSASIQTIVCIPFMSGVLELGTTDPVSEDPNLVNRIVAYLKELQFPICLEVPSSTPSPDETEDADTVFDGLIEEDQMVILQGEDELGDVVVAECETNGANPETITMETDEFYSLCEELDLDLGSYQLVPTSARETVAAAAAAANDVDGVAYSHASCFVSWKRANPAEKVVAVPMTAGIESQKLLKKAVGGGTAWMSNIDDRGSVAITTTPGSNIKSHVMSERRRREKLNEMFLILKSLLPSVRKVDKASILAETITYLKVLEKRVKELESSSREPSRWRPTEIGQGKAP
Assay: cell-based or functional assay

B1: OsKala3 (natural protein, rice (Oryza sativa), UniProt O23891 1-321, looked up)
chain: MGRKPCCSKEGLNRGAWTAMEDDILVSYIAKHGEGKWGALPKRAGLKRCGKSCRLRWLNYLRPGIKRGNISGDEEELILRLHTLLGNRWSLIAGRLPGRTDNEIKNYWNSTLSKRVAMQRTAAATSMPAAATTSSNADAAGAAARRRRSPEPRTVVVSPIRTKALRCNNNSSSGIVVVQQAGACSHGGRPPESGAPGDAAADKVATPQAVQQQQQQELAGAEDDDDLPVPAVCIDLDLDDIELGGLDGFLISPWRGGGHDDGNAAAGAVPNLPMPIGYKLGGAGGGGEAGAVDLEALLGQLEAEEDDDGDHHHHHHHHHHQ
  dual-luciferase reporter assay in transiently transfected rice protoplasts; proOsCHI:LUC reporter; co-transfection of OsKala3 and OsKala4 compared to OsKala3 alone: 4 fold
